Data taken from patent CN115073591A (INST MILITARY MEDICINE ACADEMY MILITARY SCIENCES PLA, dated 2022).

Molecular target: T1, 人hCD2(His标签)蛋白 (human, UniProt P06729 25-209)
T1 construct: not shown: His tag
T1 sequence: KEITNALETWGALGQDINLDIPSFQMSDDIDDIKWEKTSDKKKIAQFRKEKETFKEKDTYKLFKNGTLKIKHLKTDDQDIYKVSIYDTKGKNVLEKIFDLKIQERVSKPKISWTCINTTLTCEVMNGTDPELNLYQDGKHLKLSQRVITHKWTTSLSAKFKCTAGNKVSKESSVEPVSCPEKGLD
Experiment: ELISA, plate coated with hCD2-His at 2 μg/mL

B1: 单克隆抗体8G1 (antibody, V domains shown)
VH: EVLLVESGGGLVKPGGSLKLSCAASGFTFSSYAMSWVRQTPEKRLEWVATITNGGSYNYYPDSVKGRFTISRDNAKNTLYLQMSSLRSEDTAIYYCARSNPYYFDYWGQGTTLTVSP
VL: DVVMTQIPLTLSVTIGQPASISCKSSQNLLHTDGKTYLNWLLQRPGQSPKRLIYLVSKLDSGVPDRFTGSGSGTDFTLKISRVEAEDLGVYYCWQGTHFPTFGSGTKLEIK
- binding result: no binding (tested: 0.1μg/mL 8G1)
